Experimental findings from PMC8196007, “HSP-90/kinase complexes are stabilized by the large PPIase FKB-6” (Scientific Reports, 2021) are described below.

The labels stand for the following.
B1: nematode CDC-37 (natural protein, C. elegans, UniProt O02108 1-370, looked up)
chain: MPIDYSKWKDIEVSDDEDDTHPNIDTPSLFRWRHQARLERMAEKKMEQEKIDKEKGTTSKKMEELEKKLAAADVTDKSDIQKQIDEVKAQEEAWRKKEAELEEKERLEPWNVDTIGHEAFSTSRINKITEKKPQAPKTDEEDTHAMSTFFETHESLLEKMAVLKNGAKSTELFLAEHPHMASEYTANWLTIEALNAAIDFNEEKMKTMAEQCIIIQYLLELSKSLNAVATNTTVQKQFFKKFEAAEPVYMKHYQDEVKAFEDRLRTRAQTKRDAAMEEAEAEEKAERMKSAPGGIDPQEVFEQLPEEMRKCFEAHDIEALKGVAQKMDEEVFKYHFDRCIASGLWVPGKADDDDDDEEAAPAEEEPTTSS
notes: CDC-37, C. elegans (nematode) Hsp90 cochaperone; source: E. coli BL21 (DE3) cod+, purified (HisTrap, gel filtration)
B2: FKB-6 (full-length) (natural protein, C. elegans, UniProt O45418 1-431, looked up)
chain: MSGEKIDITPKKDGGVLKLIKKEGQGVVKPTTGTTVKVHYVGTLENGTKFDSSRDRGDQFSFNLGRGNVIKGWDLGVATMTKGEVAEFTIRSDYGYGDAGSPPKIPGGATLIFEVELFEWSAEDISPDRDGTILRTIIVEGSKNSFPNDTSKVLAHCVGTYQGTEFYNREVNFHIGEGSEEGLPEGVERALRRFQLGEKSKIEIRGHKYTYGNSPPAGSNIPVNATLEFTIFLKEFEKVPATWEMTAEEKLDAAKQAKDRGTMYLQKGNLKLAYNKYKRAEEVLEYEKSTDPEKMAERETILNGAYLNLSLVCSKQNEQLECIKWCDKVLETKPGNVKALYRKATALLTMNEVRDAMKLFEKIVEVEPENKAAAQQIIVCRNTIREQNERDKKRFKNLFAKISTEEDKPTNTVEDEDEIVASTSGSSTSNA
notes: FKB-6, C. elegans large PPIase, homolog of human Fkbp51/Fkbp52; also called large PPIase FKB-6; source: E. coli BL21 (DE3) cod+, purified (HisTrap, gel filtration)

The test “FKB-6 (full-length)” has as its target B2. Put plainly: native MS; LILBID-MS of the BS3-crosslinked sample and of non-crosslinked mixtures, sB-Raf:CDC-37:FKB-6:HSP-90 = 1:1:1:1 or as indicated; 25 mM Tris, 20 mM KCl, pH 7.5. The conditions noted are these: both partners purified.
A further test deals with T1, nematode HSP-90 (C. elegans, UniProt Q18688 1-702).
T1 construct: HSP-90, C. elegans (nematode) Hsp90; also called HSP-90 dimer; source: E. coli BL21 (DE3) cod+, purified (HisTrap, gel filtration)
The description is as above. The conditions noted are these: both partners purified.

Take B1: the binding result in the test with FKB-6 (full-length) and in the test with nematode HSP-90 was “binds” throughout.

B2: the binding result with nematode HSP-90 is on record as “binds”.
